Source: patent publication US7838294B2, “Inhibitors of the JNK signal transduction pathway and methods of use” (University of Massachusetts, priority 1997, dated 2010)
“Also recorded” adds a separate entry of the source. Blank lines part the entries; values can stand above or below the molecule they belong to. No end group written: not given here.

Legend:
Format in all cases: binding
JNK2 = biological target: T1, JNK2 (Homo sapiens, UniProt P45984); assay: GST-fusion pull-down from cell lysates, Flag immunoblot: JNK2; conditions: 5 μg GST-fusion protein on glutathione-Sepharose, Flag-JNK2 lysate, one hour 4° C.
T1 construct: expressed in transfected cells
Method: (§1) To test whether JIP-1 binding to JNK is also isoform-dependent, a binding assay was utilized. Cell lysates (1 ml in TLB) containing JNK1, JNK2, or p38 MAP kinase, each tagged with the Flag epitope, were incubated with 5 μg GST-fusion proteins pre-bound to 10 μl glutathione-Sepharose. The GST fusion proteins used contain residues 127-202 (SEQ ID NO:15), 203-281 (SEQ ID NO:16), 164-240 (SEQ ID NO:17), or 127-281 (SEQ ID NO:4) of JIP-1. The GST-ATF2 fusion protein contains residues 1-109 of ATF2, and the GST-Jun fusion protein contains residues 1-79 of c-Jun. After incubation for one hour at 4° C. and three washes with TLB, bound proteins were detected by protein immunoblot analysis with the M2 monoclonal antibody, which is specific for the Flag epitope. Dérijard, et al., supra; Sluss et al., supra; Gupta et al., supra. […] This finding is consistent with the results of previous studies. In contrast, when GST-JIP-1 fusion proteins containing residues 127-202 or 127-281 of JIP-1 were tested in the assay, these proteins bound both JNK1 and JNK2.
(§2) The GST-JIP-1 fusion proteins containing various portions of the JIP-1 gene were used to define regions of JIP-1 that are required for JNK interaction. A GST-JIP-1 fusion protein containing residues 127-281 of JIP-1 bound both JNK1 and JNK2.
(§3) To more precisely define the JIP-1 sequence required for JNK binding activity, additional […] fusion proteins were constructed. These fusion proteins contained residues 135-202 (SEQ ID NO:18), 144-202 (SEQ ID NO:19), 154-202 (SEQ ID NO:20), 164-202 (SEQ ID NO:21), 127-143 (SEQ ID NO:22), 127-153 (SEQ ID NO:23), or 127-163 (SEQ ID NO:24) of JIP-1. Proteins containing residues 127-202, 135-202, 144-202, […], and 127-163 all bound both JNK1 and JNK2. Thus, JIP-1 residues 144-163 are important for the interaction of JIP-1 with JNK.

JNK1 = biological target: T2, JNK1 (Homo sapiens, UniProt P45983); assay: GST-fusion pull-down from cell lysates, Flag immunoblot: JNK1; conditions: for binding to JNK1: 5 μg GST-fusion protein on glutathione-Sepharose, Flag-JNK1 lysate, one hour 4° C.; for level of binding to JNK1 compared with JNK2: GST pull-down, Flag immunoblot
T2 construct: expressed in transfected cells
Method: as §1, §2, §3

[1] = biological target: T3, JIP-1-JNK interaction (JNK1) (Homo sapiens, UniProt P45983); assay: Synthetic peptide competition of JIP-1-JNK interaction (GST-JIP-1 127-281 pull-down); conditions: for effect of peptide on JIP-1 binding to JNK1: peptide 0, 4, 8, 16, 32, and 64 μg/ml, GST-JIP-1 (residues 127-281); for inhibition of JIP-1 binding to JNK by peptide: synthetic peptides 64 μg/ml, JNK1 binding to GST-JIP-1 residues 127-281
T3 construct: expressed in transfected cells; GST-JIP-1 from a bacterial pGEX-3X vector
Method: The effect of increasing concentrations (0, 4, 8, 16, 32, and 64 μg/ml) of a synthetic peptide corresponding to JIP-1 residues 148-174 (SEQ. ID NO:3) or a control peptide having a scrambled sequence (SEQ ID NO:12) on JIP-1-JNK interaction was examined. Peptides were synthesized using an Applied Biosystems machine. Cell lysates containing Flag epitope-tagged JNK were incubated with GST-JIP-1 (residues 127-281) prebound to glutathione-Sepharose. The beads were washed, and bound proteins were detected by protein immunoblot analysis with a Flag-specific antibody.
The JNK binding domain of JIP-1 contains three amino acids, Lys-155, Thr-159, and Leu-160, that are conserved in the JNK binding domains of ATF2 and c-Jun (FIG. 2). A hydrophobic amino acid, Leu, is found at residue 162 of JIP-1. ATF2 and c-Jun also contain hydrophobic amino acids (ATF2, Phe; c-Jun, Leu) in the position corresponding to residue 162 of JIP-1. To test if these conserved residues are involved in JNK binding, the wild type JIP-1 JBD (residues 148-174) was substituted with glycines in these positions to produce the peptides shown in FIG. 3 (SEQ ID NOs:7-11). The mutant peptides are identical to the wild type peptide except for the indicated glycine substitutions. The binding of JNK1 to GST, as well as a GST fusion protein containing JIP-1 residues 127-281, was examined in the absence and presence of the synthetic peptides (64 μg/ml). A peptide with a scrambled sequence (SEQ ID NO:12) was used as a control. […] In contrast, the control peptide caused no change in JNK binding.
Peptides suspected of having JIP-1 activity can be tested in the JNK binding assay described supra. Peptides are synthesized by methods that are well known to those skilled in the art; for example, using an Applied Biosystems synthesizer. Cell lysates containing Flag epitope-tagged JNK are incubated with GST-JIP-1 (residues 127-281) bound to glutathione-Sepharose, either with or without synthetic peptides (0, 4, 8, 16, 32 or 64 μg/ml), for one hour at 4° C. The beads are washed in TLB, and the bound proteins are detected by protein immunoblot analysis with a Flag-specific antibody, e.g., M2. Synthetic peptides with JIP-1 activity are those which inhibit the interaction of JIP-1 with JNK, as detected in this assay.

T3 sequence (P45983 1-384 isoform P45983-2): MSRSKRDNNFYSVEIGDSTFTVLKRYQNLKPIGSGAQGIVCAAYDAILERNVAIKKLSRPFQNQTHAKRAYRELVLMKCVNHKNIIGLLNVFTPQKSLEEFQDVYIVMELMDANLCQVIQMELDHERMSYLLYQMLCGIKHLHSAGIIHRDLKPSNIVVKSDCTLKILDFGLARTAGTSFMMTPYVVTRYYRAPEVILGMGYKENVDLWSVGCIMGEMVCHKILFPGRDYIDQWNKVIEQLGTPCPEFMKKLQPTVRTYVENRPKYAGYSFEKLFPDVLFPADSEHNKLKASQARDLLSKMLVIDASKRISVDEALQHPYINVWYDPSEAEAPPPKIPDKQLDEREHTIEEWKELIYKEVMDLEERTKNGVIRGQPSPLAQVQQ
T2 sequence (P45983 1-384 isoform P45983-2): as above

effect of peptide on JIP-1 binding to JNK1 [1]: no effect
inhibition of JIP-1 binding to JNK by peptide [1]: no change
Molecule: SEQ ID NO:12: control peptide having a scrambled sequence (NSLGTDDTQYSRRPPKVRQPNPTFTLL) [reference compound]

effect of peptide on JIP-1 binding to JNK1 [1]: dose-dependent decrease
inhibition of JIP-1 binding to JNK by peptide [1]: dose-dependent inhibition
Molecule: SGDTYRPKRPTTLNLFPQVPRSQDTLN [JIP-1 residues 148-174, synthetic peptide corresponding to JIP-1 residues 148-174, core of the JBD]

level of binding to JNK1 compared with JNK2 (JNK1): greater than binding to JNK2
B3: GST-Jun: GST fusion protein containing residues 1-79 of c-Jun (protein)
chain: MTAKMETTFYDDALNASFLPSESGPYGYSNPKILKQSMTLNLADPVGSLKPHLRAKNSDLLTSPDVGLLKLASPELERL
modifications: left off: a dimerising Fc or GST
notes: GST fusion protein containing residues 1-79 of c-Jun

binding to JNK2 (JNK2): No JNK binding was detected
binding to JNK1 (JNK1): No JNK binding was detected
B5: GST-JIP-1 residues 164-240: GST fusion protein containing residues 164-240 of JIP-1 (central region) (protein, UniProt Q9WVI9 164-240, looked up, fragment)
chain: PQVPRSQDTLNNNSLGKKHSWQDRVSRSSSPLKTGEQTPPHEHICLSDELPPQGSPVPTQDRGTSTDSPCRRSAATQ
modifications: GST fusion

binding to JNK2 (JNK2): No JNK binding was detected
binding to JNK1 (JNK1): No JNK binding was detected
B6: GST-JIP-1 residues 203-281: GST fusion protein containing residues 203-281 of JIP-1 (carboxy terminal region) (protein, UniProt Q9WVI9 203-281, looked up, fragment)
chain: PHEHICLSDELPPQGSPVPTQDRGTSTDSPCRRSAATQMAPPSGPPATAPGGRGHSHRDRIHYQADVRLEATEEIYLTP
modifications: GST fusion

The remaining lines, values behind:

Molecule: GST-JIP-1 residues 127-163: GST fusion protein containing residues 127-163 of JIP-1 (PKAESNQDPAPRSQGQGPGTGSGDTYRPKRPTTLNLF; also: GST fusion; UniProt Q9WVI9 127-163, looked up, fragment)
binding to JNK2 (JNK2): bound
binding to JNK1 (JNK1): bound

Molecule: GST-JIP-1 residues 144-202: GST fusion protein containing residues 144-202 of JIP-1 (PGTGSGDTYRPKRPTTLNLFPQVPRSQDTLNNNSLGKKHSWQDRVSRSSSPLKTGEQTP; also: GST fusion; UniProt Q9WVI9 144-202, looked up, fragment)
binding to JNK2 (JNK2): bound
binding to JNK1 (JNK1): bound

Molecule: GST-JIP-1 residues 154-202: GST fusion protein containing residues 154-202 of JIP-1 (PKRPTTLNLFPQVPRSQDTLNNNSLGKKHSWQDRVSRSSSPLKTGEQTP; also: GST fusion; UniProt Q9WVI9 154-202, looked up, fragment)
binding to JNK2 (JNK2): bound
binding to JNK1 (JNK1): bound

B1: GST-ATF2: GST fusion protein containing residues 1-109 of ATF2 (protein)
chain: MKFKLHVNSARQYKDLWNMSDDKPFLCTAPGCGQRFTNEDHLAVHKHKHEMTLKFGPARNDSVIVADQTPTPTRFLKNCEEVGLFNELASPFENEFKKASEDDIKKMPL
modifications: left off: a dimerising Fc or GST
notes: GST fusion protein containing residues 1-109 of ATF2
level of binding to JNK1 compared with JNK2 (JNK1): greater than binding to JNK2

B2: GST-JIP-1 residues 127-281: GST fusion protein containing residues 127-281 of JIP-1 (protein)
chain: PKAESNQDPAPRSQGQGPGTGSGDTYRPKRPTTLNLFPQVPRSQDTLNNNSLGKKHSWQDRVSRSSSPLKTGEQTPPHEHICLSDELPPQGSPVPTQDRGTSTDSPCRRSAATQMAPPSGPPATAPGGRGHSHRDRIHYQADVRLEATEEIYLTP
modifications: left off: a dimerising Fc or GST
binding to JNK2 (JNK2): bound
binding to JNK1 (JNK1): bound

B4: GST-JIP-1 residues 127-202: GST fusion protein containing residues 127-202 of JIP-1 (amino terminal region) (protein, UniProt Q9WVI9 127-202, looked up, fragment)
chain: PKAESNQDPAPRSQGQGPGTGSGDTYRPKRPTTLNLFPQVPRSQDTLNNNSLGKKHSWQDRVSRSSSPLKTGEQTP
modifications: GST fusion
binding to JNK2 (JNK2): bound; also recorded: JNK binding activity was observed
binding to JNK1 (JNK1): bound; also recorded: JNK binding activity was observed

B7: GST-JIP-1 residues 135-202: GST fusion protein containing residues 135-202 of JIP-1 (protein, UniProt Q9WVI9 135-202, looked up, fragment)
chain: PAPRSQGQGPGTGSGDTYRPKRPTTLNLFPQVPRSQDTLNNNSLGKKHSWQDRVSRSSSPLKTGEQTP
modifications: GST fusion
binding to JNK2 (JNK2): bound
binding to JNK1 (JNK1): bound
